# Assay results reported in patent US20240270821A1, “GIP/GLP1/GCG TRI-RECEPTOR AGONISTS AND USES THEREOF” (priority 2023, published 2024).
# Starred links: 1 amine or outer side, 2 acyl side, 3 side chain; linkers in the order of their positions; H or OH if unused. Non-standard residues stand in square brackets, D forms with d. Groups on a side chain read outwards from the residue. No end group written: not given here. *: point of attachment. C18 diacid = O=C(O)CCCCCCCCCCCCCCCCC(=O)*; γGlu = O=C(O)[C@H](CCC(=O)[*:2])N[*:1]; αMeL = CC(C)C[C@](C)(N)C(=O)O; Dap = NC[C@H](N)C(=O)O; AEEA = NCCOCCOCC(=O)O; Aib = CC(C)(N)C(=O)O
# T1: human GIP receptor (human) (UniProt P48546)
# T1 sequence (looked up): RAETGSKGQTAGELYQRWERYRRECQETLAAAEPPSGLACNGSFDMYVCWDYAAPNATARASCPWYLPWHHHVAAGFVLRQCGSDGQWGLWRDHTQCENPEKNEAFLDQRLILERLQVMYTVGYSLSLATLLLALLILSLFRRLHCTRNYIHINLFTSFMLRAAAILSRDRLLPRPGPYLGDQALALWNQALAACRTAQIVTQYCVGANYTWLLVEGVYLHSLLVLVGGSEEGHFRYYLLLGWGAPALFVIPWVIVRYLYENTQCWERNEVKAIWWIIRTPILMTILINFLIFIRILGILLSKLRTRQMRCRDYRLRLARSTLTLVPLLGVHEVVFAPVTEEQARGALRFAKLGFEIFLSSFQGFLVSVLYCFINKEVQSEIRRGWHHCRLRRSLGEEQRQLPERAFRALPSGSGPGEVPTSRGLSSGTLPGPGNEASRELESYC
# B1: Example 114 (peptide)
# chain: YXQGTFTSDXSRXLDKKAQXAFIEYLLEXGPSSGAPPPSGE
# modifications: synthetic construct; SITE 2: note = 2-Aminoisobutyric Acid; SITE 10: note = 3-(4-Pyridyl)-L-alanine; SITE 13: note = alpha-methyl-leucine; SITE 17: note = Lysine is chemically modified through conjugation of the epsilon-amino group of the Lysine side chain with (2-[2-(2-Amino-ethoxy)-ethoxy]-acetyl)
# B2: Example 117 (peptide)
# chain: YXQGTFTSDFSXXLDKKAQXAFIEYLLEAGPSSGEPPPSGE
# modifications: synthetic construct; SITE 2: note = 2-Aminoisobutyric Acid; SITE 12: note = L-ornithine; SITE 13: note = alpha-methyl-leucine; SITE 17: note = Lysine is chemically modified through conjugation of the epsilon-amino group of the Lysine side chain with (2-[2-(2-Amino-ethoxy)-ethoxy]-acetyl)2-(gamma-Glu)
# B3: Example 362 (peptide)
# chain: YXQGTFTSDYSQXLDKKAQXAFIEYLLEGGESSGAPPPSGS
# modifications: synthetic construct; SITE 2: note = 2-Aminoisobutyric Acid; SITE 13: note = alpha-methyl-leucine; SITE 17: note = Lysine is chemically modified through conjugation of the epsilon-amino group of the Lysine side chain with (2-[2-(2-Amino-ethoxy)-ethoxy]-acetyl)-(gamma-Glu)-CO-(CH2) 16-CO2H; SITE 20: n
# B4: Example 126 (peptide)
# chain: YXQGTFTSDFSXXLDKKAQXAFIEWLLEGGHSSGAPPPEGS
# modifications: synthetic construct; SITE 2: note = 2-Aminoisobutyric Acid; SITE 12: note = L-ornithine; SITE 13: note = alpha-methyl-leucine; SITE 17: note = Lysine is chemically modified through conjugation of the epsilon-amino group of the Lysine side chain with (2-[2-(2-Amino-ethoxy)-ethoxy]-acetyl)-(gamma-Glu)
# B5: Example 129 (peptide)
# chain: YXQGTFTSDFSXXLDKKAQXAFIEYLLEAGPSSGAPPPSGE
# modifications: synthetic construct; SITE 2: note = 2-Aminoisobutyric Acid; SITE 12: note = L-ornithine; SITE 13: note = alpha-methyl-leucine; SITE 17: note = Lysine is chemically modified through conjugation of the epsilon-amino group of the Lysine side chain with (2-[2-(2-Amino-ethoxy)-ethoxy]-acetyl)-(gamma-Glu)
# B6: Example 132 (peptide)
# chain: YXQGTFTSDXSRXLDKKAQXAFIEYLLEXGESSGAPPPSGS
# modifications: synthetic construct; SITE 2: note = 2-Aminoisobutyric Acid; SITE 10: note = 3-(4-Pyridyl)-L-alanine; SITE 13: note = alpha-methyl-leucine; SITE 17: note = Lysine is chemically modified through conjugation of the epsilon-amino group of the Lysine side chain with (2-[2-(2-Amino-ethoxy)-ethoxy]-acetyl)
# B7: Example 121 (peptide)
# chain: YXQGTFTSDFSXXLDKKAQXAFIEWLLEGGPSSGAPPPEGS
# modifications: synthetic construct; SITE 2: note = 2-Aminoisobutyric Acid; SITE 12: note = L-ornithine; SITE 13: note = alpha-methyl-leucine; SITE 17: note = Lysine is chemically modified through conjugation of the epsilon-amino group of the Lysine side chain with (2-[2-(2-Amino-ethoxy)-ethoxy]-acetyl)-(gamma-Glu)
# B8: Example 361 (peptide)
# chain: YXQGTFTSDYSRXLDKKAQXAFIEYLLEGGESSGAPPPSGS
# modifications: synthetic construct; SITE 2: note = 2-Aminoisobutyric Acid; SITE 13: note = alpha-methyl-leucine; SITE 17: note = Lysine is chemically modified through conjugation of the epsilon-amino group of the Lysine side chain with (2-[2-(2-Amino-ethoxy)-ethoxy]-acetyl)-(gamma-Glu)-CO-(CH2) 16-CO2H; SITE 20: n
# B9: Example 107 (peptide)
# chain: YXQGTFTSDFSXXLDKKAQXAFIEYLLEGGPSSGAPPPSGE
# modifications: synthetic construct; SITE 2: note = 2-Aminoisobutyric Acid; SITE 12: note = L-ornithine; SITE 13: note = alpha-methyl-leucine; SITE 17: note = Lysine is chemically modified through conjugation of the epsilon-amino group of the Lysine side chain with (2-[2-(2-Amino-ethoxy)-ethoxy]-acetyl)2-(gamma-Glu)
# B10: Example 113 (peptide)
# chain: YXQGTFTSDXSRXLDKKAQXAFIEYLLAGGPSSGAPPPSGE
# modifications: synthetic construct; SITE 2: note = 2-Aminoisobutyric Acid; SITE 10: note = 3-(4-Pyridyl)-L-alanine; SITE 13: note = alpha-methyl-leucine; SITE 17: note = Lysine is chemically modified through conjugation of the epsilon-amino group of the Lysine side chain with (2-[2-(2-Amino-ethoxy)-ethoxy]-acetyl)
# B11: Example 134 (peptide)
# chain: Y[Aib]QGTFTSDFS[Dap][αMeL]LDKK([AEEA-γGlu-C18 diacid])AQ[Aib]AFIEYLLE[Aib]GPSSGAPPPSGS-NH2
# Columns and labels:
# Assay in all cases: cell-based or functional assay
# [1] = molecular target: hGLP-1R (Homo sapiens, UniProt P43220)
# hGLP-1R, sequence (P43220 24-463): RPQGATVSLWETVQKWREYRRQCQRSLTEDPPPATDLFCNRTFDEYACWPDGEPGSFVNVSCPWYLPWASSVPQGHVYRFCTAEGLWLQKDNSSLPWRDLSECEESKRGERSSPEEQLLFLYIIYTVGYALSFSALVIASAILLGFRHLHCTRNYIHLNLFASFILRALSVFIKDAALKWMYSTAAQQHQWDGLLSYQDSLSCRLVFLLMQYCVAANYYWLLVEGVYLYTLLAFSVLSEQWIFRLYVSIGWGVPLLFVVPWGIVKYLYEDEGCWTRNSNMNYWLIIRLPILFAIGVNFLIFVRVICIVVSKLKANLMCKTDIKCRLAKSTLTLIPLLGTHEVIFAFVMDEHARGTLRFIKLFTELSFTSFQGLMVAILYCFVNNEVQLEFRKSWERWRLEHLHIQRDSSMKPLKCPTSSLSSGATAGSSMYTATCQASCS
# [2] = molecular target: T1, human GIP receptor (human)
# [3] = molecular target: human GLP-1R (SNAP-GLP-1R expressed in HEK293 cells) (human) (UniProt P43220)
# human GLP-1R (SNAP-GLP-1R expressed in HEK293 cells) (human), sequence (P43220 24-463): as above
# [4] = molecular target: human glucagon receptor (human) (UniProt P47871)
# human glucagon receptor (human), sequence (P47871 26-477): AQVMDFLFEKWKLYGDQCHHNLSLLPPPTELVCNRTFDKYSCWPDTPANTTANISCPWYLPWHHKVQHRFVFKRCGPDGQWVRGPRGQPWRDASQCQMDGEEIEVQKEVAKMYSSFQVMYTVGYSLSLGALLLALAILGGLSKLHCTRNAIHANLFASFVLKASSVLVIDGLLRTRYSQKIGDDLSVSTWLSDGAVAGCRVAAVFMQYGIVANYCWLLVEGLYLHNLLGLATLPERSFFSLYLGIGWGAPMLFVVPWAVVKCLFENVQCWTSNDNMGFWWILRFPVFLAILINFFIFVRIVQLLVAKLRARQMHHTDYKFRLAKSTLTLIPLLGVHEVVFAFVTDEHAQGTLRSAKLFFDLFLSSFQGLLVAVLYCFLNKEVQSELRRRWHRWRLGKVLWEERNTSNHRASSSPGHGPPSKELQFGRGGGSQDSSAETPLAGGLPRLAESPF
Binder,"cAMP Rel EC50, nM (in the presence of 1% HSA) [1] [nM]","cAMP Rel EC50, nM (in the presence of 1% HSA) [2] [nM]",GLP1R Internalization EC50 [3] [nM],Internalization % TOP [3] [%],"cAMP Rel EC50, nM (in the presence of 1% HSA) [4] [nM]",Relative cAMP EC50 [1] [nM],Relative cAMP EC50 [2] [nM],Relative cAMP EC50 [4] [nM],"cAMP Rel EC50, nM (1% HSA) [1] [nM]","cAMP Rel EC50, nM (1% HSA) [2] [nM]","cAMP Rel EC50, nM (1% HSA) [4] [nM]"
B1,1370,19.6,47.2,62.9,1120,,,,,,
B2,524,29.9,45.5,51,867,6.4,0.267,4.75,,,
B3,,,22.8,77.5,,1.77,0.262,6.04,450,38.7,1450
B4,838,40.3,63.2,38.8,1120,3.97,0.264,6.81,,,
B5,284,24.3,22.5,40.6,510,1.87,0.134,2.01,,,
B6,823,25.9,72.7,67.2,632,5.72,0.21,2.63,,,
B7,348,24.6,38.1,46.3,442,2.38,0.172,4.89,,,
B8,,,50.4,73,,,,,376,46.3,987
B9,1110,61.3,150,45.1,1690,8.5,0.426,10.8,,,
B10,467,32.3,39.5,64.6,2090,3.93,0.24,12,,,
B11,549,38.3,67.9,22.3,1200,3.36,0.152,7.28,,,
